Data on 1 molecule can be found in patent US20240294670A1 (University of Texas, published 2024).

In the test the target is T1, Q3T9S7_MOUSE (mouse, UniProt Q3T9S7 22-1179).
T1 construct: also called tr|Q3T9S7|Q3T9S7_MOUSE
T1 sequence: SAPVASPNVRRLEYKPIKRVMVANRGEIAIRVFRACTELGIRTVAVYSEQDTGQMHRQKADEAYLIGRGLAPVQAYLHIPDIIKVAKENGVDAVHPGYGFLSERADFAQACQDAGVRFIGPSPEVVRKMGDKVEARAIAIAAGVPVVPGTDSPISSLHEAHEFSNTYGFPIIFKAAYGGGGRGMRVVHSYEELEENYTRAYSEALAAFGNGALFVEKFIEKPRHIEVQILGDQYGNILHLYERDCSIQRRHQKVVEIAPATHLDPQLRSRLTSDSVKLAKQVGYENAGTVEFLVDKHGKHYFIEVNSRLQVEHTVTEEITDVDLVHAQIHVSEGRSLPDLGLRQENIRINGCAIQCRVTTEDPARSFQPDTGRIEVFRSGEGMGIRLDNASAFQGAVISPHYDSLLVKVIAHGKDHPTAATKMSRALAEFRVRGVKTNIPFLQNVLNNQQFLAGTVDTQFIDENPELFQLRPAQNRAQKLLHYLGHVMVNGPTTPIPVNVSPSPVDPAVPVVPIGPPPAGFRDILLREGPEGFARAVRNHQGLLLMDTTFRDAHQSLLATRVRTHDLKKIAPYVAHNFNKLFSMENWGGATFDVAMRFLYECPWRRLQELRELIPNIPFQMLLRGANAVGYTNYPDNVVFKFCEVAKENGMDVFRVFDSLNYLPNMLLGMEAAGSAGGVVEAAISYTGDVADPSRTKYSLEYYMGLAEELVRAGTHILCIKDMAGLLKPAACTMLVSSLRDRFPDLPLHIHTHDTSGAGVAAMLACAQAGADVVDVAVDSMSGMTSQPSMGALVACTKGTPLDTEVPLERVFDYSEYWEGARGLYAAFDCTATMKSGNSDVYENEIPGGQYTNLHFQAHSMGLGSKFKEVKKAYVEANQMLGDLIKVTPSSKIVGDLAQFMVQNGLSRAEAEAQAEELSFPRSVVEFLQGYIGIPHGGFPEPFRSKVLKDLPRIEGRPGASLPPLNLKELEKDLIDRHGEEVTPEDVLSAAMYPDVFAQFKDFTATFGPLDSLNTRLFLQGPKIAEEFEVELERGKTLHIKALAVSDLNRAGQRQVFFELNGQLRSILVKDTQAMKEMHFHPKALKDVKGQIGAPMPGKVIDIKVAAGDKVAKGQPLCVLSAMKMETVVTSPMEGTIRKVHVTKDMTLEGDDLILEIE
Kind of test: anti-His co-IP of rCHI3L1 from Kupffer cell lysate, MS; listed under 'proteins bound to CHI3L1'. A digest of the protocol: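 Kupffer cells from WT mice 3 h after APAP were incubated with His-tagged rCHI3L1; lysate immunoprecipitated with anti-His antibody and the pulled-down fraction identified by LC/MS.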

B1: recombinant mouse CHI3L1 (ligand)
chain: not shown
notes: His-tagged; also called mCHI3L1; mChi3l1
For the molecule B1, the binding result was “binds”.
